Consider 3 molecules from publication PMC7064531 (2020).

Where no end group is shown, it is not given here. [ ]: non-standard residue; d: D form. pY = N[C@@H](Cc1ccc(OP(=O)(O)O)cc1)C(=O)O

Test [1] concerns the target T1, E6AP AZUL (amino-terminal zinc-binding domain of ubiquitin E3a ligase), amino acids 24 to 87 (human, UniProt Q05086 24-87).
T1 chain: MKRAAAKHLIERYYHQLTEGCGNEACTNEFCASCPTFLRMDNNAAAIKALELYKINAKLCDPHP
Description: ITC; Y326 phosphorylated.

Test [2] addresses T1, E6AP AZUL (amino-terminal zinc-binding …). Description: ITC; Y326 phosphorylated.
The target is the same in test [3]. In words: SPR.
The target is the same in test [4]. Description: ITC.
The target is the same in test [5]. In words: ITC.

As for EEDD[pY]DVMQDPEFLQSVLENLPGVDPNNEAIRNAMGSLASQATKD (not fully specified) [hRpn10^322–366 peptide with Y326 phosphorylated], the equilibrium dissociation constant (Kd) in test [1] and in test [2] was 189 nM in each case.

B1: GST-hRpn10^305–377 (domain or fragment)
chain: SADIDASSAMDTSEPAKEEDDYDVMQDPEFLQSVLENLPGVDPNNEAIRNAMGSLASQATKDGKKDKKEEDKK
On to B1, for which, in test [3], the koff was 0.0211 s⁻¹.

For the molecule EEDDYDVMQDPEFLQSVLENLPGVDPNNEAIRNAMGSLASQATKD [hRpn10^322–366 peptide], the Kd in test [4] and in test [5] was 18.2 nM throughout.
